Reference: patent US20250002921A1, “SPHERICAL NUCLEIC ACIDS FOR cGAS-STING AND STAT3 PATHWAY MODULATION FOR THE IMMUNOTHERAPEUTIC TREATMENT OF CANCER” (NORTHWESTER UNIVERSITY, priority 2021, published 2025)

System: IRF
Assay: IRF reporter assay in isogenic cGAS-, STING- and IRF-deficient macrophages
Type: cell-based
Conditions: IRF-deficient macrophages, FIG. 2D
From the text: (A) ICP-MS to quantify cellular level of gold in cells treated with ISD45-SNAs. (B-D) Luciferase reporter assay to quantify IRF induction in RAW-Lucia™ macrophages (B), THP cells (C), and in WT, cGAS-, STING- and IRF-deficient RAW-Lucia™ macrophages. TFX, transfection agent. Median+/−standard deviation is shown. *p<0.05. (E) Multiplex ELISA-based and (F) antibody array-based cytokine profiling in RAW-Lucia™ macrophages.
To exploit the SNA architecture for cGAS activation, we synthesized ISD45-SNAs by conjugating 13 nm gold nanoparticles with 45 base pair (bp) dsISD oligonucleotides (ISD^45-SNAs; FIG. 1A), as 45 bp ISD oligonucleotides represent the most used and widely characterized cGAS activator^7. The terms “dsISD^45” and “ISD^45” are interchangeable as used herein. Citrate-stabilized gold nanoparticles were prepared using the Frens method^4,8,9. […] In addition, by generating melting curves, using an OliGreen fluorescence assay, and determining the zeta potential, oligonucleotide incorporation was quantified^4,8,9. […] Upon cGAS enzyme deactivation, the mixture was added to cGAS-deficient RAW-Lucia™ macrophages, carrying stable integration of an IRF-inducible Lucia luciferase reporter to quantify IRF induction luminometrically. […]

B1: ISD-45: free 45 bp interferon-stimulatory dsDNA oligonucleotide, the most used and widely characterized cGAS activator (nucleic acid)
sense: TACAGATCTACTAGTGATCTATGACTGATCTGTACATGATCTACA
antisense: ACATCTAGTACATGTCTAGTCAGTATCTAGTGATCATCAGACA
modifications: DNA, backbone and methylation of C not given here
IRF induction in the absence of STING, cGAS or IRF: blunted
